{
  "source": "patent US20210221891A1",
  "about": "(NANJING LEGEND BIOTECH, published 2021)",
  "data": [
    {"target": "human PD-L1 expressed on CHO-K1 cells (human, UniProt Q9NZQ7 19-290)", "sequence (Q9NZQ7 19-290)": "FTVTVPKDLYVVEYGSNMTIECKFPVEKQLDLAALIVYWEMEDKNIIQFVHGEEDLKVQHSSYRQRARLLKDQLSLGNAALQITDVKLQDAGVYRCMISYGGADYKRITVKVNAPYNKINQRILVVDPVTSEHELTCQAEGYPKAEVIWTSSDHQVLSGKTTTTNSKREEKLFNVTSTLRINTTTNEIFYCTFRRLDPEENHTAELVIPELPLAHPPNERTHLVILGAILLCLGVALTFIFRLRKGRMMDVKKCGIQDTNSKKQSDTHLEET", "assay": "cell-based or functional assay", "units": {"EC50 of PD-L1- based blockade assay for sdAbs": "µM"}, "values": [
      {"binder": "AS11947 sdAb (VHH) VHH: DVQLVESGGGLVQAGDSLRLTCSASGRTFISYAVGWFRQAPGTEREFVAGIRWNGISTDYTDSVKGRFTISRDNAKNTVYLQMNSLKPEDTAIYYCAAHRTIATIPNKYEYDHWGQGTQVTVSS", "EC50 of PD-L1- based blockade assay for sdAbs": 0.0772},
      {"binder": "AS06628 sdAb (VHH) VHH: QVQLVESGGGLVQAGGSLRLSCAASGRTFITYAIGWFRQAPGKEREFVTAINWSGSMTSYADSVKGRFTISRDNNKNMVYLQMNSLKPEDTAVYYCAAHRGAIAPMTQSVYDYWGQGTQVTVSS", "EC50 of PD-L1- based blockade assay for sdAbs": 0.0242},
      {"binder": "AS06703 sdAb (VHH) VHH: EVQLVESGGGLVRAGGSLRLSCAASGRTFITYAIGWFRQAPGKEREFVTAINWSGSMTSYADSVKGRFTISRDNNKNTVYLQMNSLKPEDTALYYCAAHLGAIAPMSQSVYDYWGQGTQVTVSS", "EC50 of PD-L1- based blockade assay for sdAbs": 0.015},
      {"binder": "AS06791 sdAb (VHH) VHH: QVQLVESGGGLVQAGGSLRLSCAASGRTFITYAIGWFRQAPGKEREFVTAINWSGSMTSYADSVKGRFTISRDNAKNTVYLQINGLKSEDTAVYYCAAHRGAIAPMTQSVYDYWGQGTQVTVSS", "EC50 of PD-L1- based blockade assay for sdAbs": 0.0365},
      {"binder": "AS06730 sdAb (VHH) VHH: QVQLVESGGGLVQAGGSLRLSCAASGRTFITYAIGWFRQAPGKEREFVSAINWSGSMTSYADSVKGRFTISRDNAKNTVYLQMNGLKPEDTAVYYCAAHRGAIAPIAQSVYTNWGQGTQVTVSS", "EC50 of PD-L1- based blockade assay for sdAbs": 0.0172},
      {"binder": "AS11948 sdAb (VHH) VHH: EVQLVESGGGLVQAGDSLRLSCVASGRTFVTYGMGWFRQAPGKEREFVAAINWSGSMTSYGDSVKGRFAISRDNAKNTVYLQMNSLKPEDTAVYYCAAALGAVVYTTREPYTYWGRGTQVTVSS", "EC50 of PD-L1- based blockade assay for sdAbs": 0.0252},
      {"binder": "AS06778 sdAb (VHH) VHH: QVQLVESGGGLVQAGGSLKLSCAASGRTFITYAMGWFRQAPGKERELVAAISWSGSSTYSADSVKGRFTISRDNAKNTVYLQMNSLKPEDTAVYYCAAEVSARTGEHLPKLMGDYWGQGTQVTVSS", "EC50 of PD-L1- based blockade assay for sdAbs": 0.0201},
      {"binder": "AS06686 sdAb (VHH) VHH: AVQLVESGGGLVQAGDSLRLACAASGRTFLTYALGWFRQAPGKEREFVAGVSWSGSSTKYADSVKGRFTISRDNAKNTVYMQMNSLKPEDTAVYYCAAQISAIVPISAHEYQYWGQGTQVTVSS", "EC50 of PD-L1- based blockade assay for sdAbs": 0.352},
      {"binder": "AS06750 sdAb (VHH) VHH: AVQLVESGGGLVQAGDSLRLSCTASGRTFLTYAVGWFRQAPGTEREFVAGIRWSGGYTDYADSVKGRFTISRDNAKNTVYLQMNSLKPEDTAVYYCAAHRTIATIPEKYEYEYWGQGTQVTVSS", "EC50 of PD-L1- based blockade assay for sdAbs": 0.0336},
      {"binder": "AS06618 sdAb (VHH) VHH: EVQLVESGGRLVRAGDSLRLSCAASGRTFLSYAVGWFRQAPGTEREFVAGIRWSGGYTDYAEAVKGRFTISRDNAKNTVYLQMNSLKPEDTAVYYCAAHRTIATIPEKYEYEYWGQGTQVTVSS", "EC50 of PD-L1- based blockade assay for sdAbs": 0.0445},
      {"binder": "AS12003 sdAb (VHH) VHH: EVQLVESGGGLVQAGDSLRLSCAASGRTFLSYAVGWFRQAPGTEREFVAGIRWSGGSTDYADSVKGRFTISRDNAKNTVYLQMNSLKPEDTAVYYCAAHRTIATVPNKYEYDTWGQGTQVTVSS", "EC50 of PD-L1- based blockade assay for sdAbs": 0.0962},
      {"binder": "AS06682 sdAb (VHH) VHH: AVQLVESGGGLVQAGDSLRLSCTASGRTFLSYAVGWFRQAPGTEREFVAGIRWSGEHTDYAASVKGRFTISRDNAKNTVYLQMNSLKPEDTAVYYCAAHTTIATIPKKYEYEYWGQGTQVTVSS", "EC50 of PD-L1- based blockade assay for sdAbs": 0.042},
      {"binder": "AS06617 sdAb (VHH) VHH: DVQLVESGGGLVQAGDSLRLSCAASGRTFISYAVGWFRQAPGSEREFVAGIRWNGIHTDYADSVKGRFTISRDNAKNTVTLEMTSLKPEDTAVYYCAAHRTIATIPEKYEYEYWGQGTQVTVSS", "EC50 of PD-L1- based blockade assay for sdAbs": 0.0638},
      {"binder": "AS06775 sdAb (VHH) VHH: QVQLVESGGGLVQAGDSLRLSCAASGRTFLTLAVGWFRQAPGTEREFVAGIRWSGSGTDYADSVKGRFTISRDNAKNTVYLQMNSLKPEDTAVYYCAAHTTIATIPEKYEYEYWGRGTQVTVSS", "EC50 of PD-L1- based blockade assay for sdAbs": 0.0755}
    ]}
  ]
}
